Data: patent publication US20230416330A1, “Optimized GIP Peptide Analogues” (Antag Therapeutics ApS, priority 2019, published 2023)
Starred links: 1 amine or outer side, 2 acyl side, 3 side chain; linkers in the order of their positions; H or OH if unused. Non-standard residues stand in square brackets, D forms with d. Groups on a side chain read outwards from the residue. No end group written: not given here. *: point of attachment. C18 diacid = O=C(O)CCCCCCCCCCCCCCCCC(=O)*; γGlu = O=C(O)[C@H](CCC(=O)[*:2])N[*:1]; Glutaryl = O=C(CCCC(=O)[*:2])[*:1]; Nle = CCCC[C@H](N)C(=O)O; AEEA = NCCOCCOCC(=O)O; Aib = CC(C)(N)C(=O)O

T1: human GIP receptor (human, UniProt P48546 22-466)
T1 sequence (looked up): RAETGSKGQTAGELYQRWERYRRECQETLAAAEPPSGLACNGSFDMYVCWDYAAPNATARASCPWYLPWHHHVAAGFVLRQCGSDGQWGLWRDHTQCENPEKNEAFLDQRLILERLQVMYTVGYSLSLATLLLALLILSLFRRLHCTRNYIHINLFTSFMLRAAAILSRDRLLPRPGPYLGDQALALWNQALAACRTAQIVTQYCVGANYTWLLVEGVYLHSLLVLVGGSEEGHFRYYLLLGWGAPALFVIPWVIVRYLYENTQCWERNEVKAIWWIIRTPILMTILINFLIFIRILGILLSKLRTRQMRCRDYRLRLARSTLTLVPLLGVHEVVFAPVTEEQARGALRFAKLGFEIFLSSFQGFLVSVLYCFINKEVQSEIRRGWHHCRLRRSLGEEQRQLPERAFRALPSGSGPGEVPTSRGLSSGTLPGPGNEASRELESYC


Biological target: T1, human GIP receptor
Test: cell-based or functional assay

Row | Binder | nM (Kb, Gaddum assay, cAMP) [nM] | pKb (Gaddum assay, cAMP)
1 | Glutaryl-GTFISEYSI[Aib]LEKIK([AEEA-AEEA-γGlu-C18 diacid])QQEFVEWLLAQKPSSGAPPPS-NH2 (SMILES CC[C@H](C)[C@H](NC(=O)[C@H](CCCCN)NC(=O)[C@H](CCC(=O)O)NC(=O)[C@H](CC(C)C)NC(=O)C(C)(C)NC(=O)[C@@H](NC(=O)[C@H](CO)NC(=O)[C@H](Cc1ccc(O)cc1)NC(=O)[C@H](CCC(=O)O)NC(=O)[C@H](CO)NC(=O)[C@@H](NC(=O)[C@H](Cc1ccccc1)NC(=O)[C@@H](NC(=O)CNC(=O)CCCC(=O)O)[C@@H](C)O)[C@@H](C)CC)[C@@H](C)CC)C(=O)N[C@@H](CCCCNC(=O)COCCOCCNC(=O)COCCOCCNC(=O)CC[C@H](NC(=O)CCCCCCCCCCCCCCCCC(=O)O)C(=O)O)C(=O)N[C@@H](CCC(N)=O)C(=O)N[C@@H](CCC(N)=O)C(=O)N[C@@H](CCC(=O)O)C(=O)N[C@@H](Cc1ccccc1)C(=O)N[C@H](C(=O)N[C@@H](CCC(=O)O)C(=O)N[C@@H](Cc1c[nH]c2ccccc12)C(=O)N[C@@H](CC(C)C)C(=O)N[C@@H](CC(C)C)C(=O)N[C@@H](C)C(=O)N[C@@H](CCC(N)=O)C(=O)N[C@@H](CCCCN)C(=O)N1CCC[C@H]1C(=O)N[C@@H](CO)C(=O)N[C@@H](CO)C(=O)NCC(=O)N[C@@H](C)C(=O)N1CCC[C@H]1C(=O)N1CCC[C@H]1C(=O)N1CCC[C@H]1C(=O)N[C@@H](CO)C(N)=O)C(C)C) [AT713] | 0.31 | 9.5
2 | EGTFISEYSIAMEKIK([AEEA-AEEA-γGlu-C18 diacid])QQEFVEWLLAQKPSSGAPPPS-OH [AT710] | 0.73 | 9.1
3 | Glutaryl-GTFISEYSIALEKIK([AEEA-AEEA-γGlu-C18 diacid])QQEFVEWLLAQKPSSGAPPPS-OH (SMILES CC[C@H](C)[C@H](NC(=O)[C@H](CO)NC(=O)[C@H](Cc1ccc(O)cc1)NC(=O)[C@H](CCC(=O)O)NC(=O)[C@H](CO)NC(=O)[C@@H](NC(=O)[C@H](Cc1ccccc1)NC(=O)[C@@H](NC(=O)CNC(=O)CCCC(=O)O)[C@@H](C)O)[C@@H](C)CC)C(=O)N[C@@H](C)C(=O)N[C@@H](CC(C)C)C(=O)N[C@@H](CCC(=O)O)C(=O)N[C@@H](CCCCN)C(=O)N[C@H](C(=O)N[C@@H](CCCCNC(=O)COCCOCCNC(=O)COCCOCCNC(=O)CC[C@H](NC(=O)CCCCCCCCCCCCCCCCC(=O)O)C(=O)O)C(=O)N[C@@H](CCC(N)=O)C(=O)N[C@@H](CCC(N)=O)C(=O)N[C@@H](CCC(=O)O)C(=O)N[C@@H](Cc1ccccc1)C(=O)N[C@H](C(=O)N[C@@H](CCC(=O)O)C(=O)N[C@@H](Cc1c[nH]c2ccccc12)C(=O)N[C@@H](CC(C)C)C(=O)N[C@@H](CC(C)C)C(=O)N[C@@H](C)C(=O)N[C@@H](CCC(N)=O)C(=O)N[C@@H](CCCCN)C(=O)N1CCC[C@H]1C(=O)N[C@@H](CO)C(=O)N[C@@H](CO)C(=O)NCC(=O)N[C@@H](C)C(=O)N1CCC[C@H]1C(=O)N1CCC[C@H]1C(=O)N1CCC[C@H]1C(=O)N[C@@H](CO)C(=O)O)C(C)C)[C@@H](C)CC) [AT707] | 0.28 | 9.6
4 | EGTFISEYSI[Aib]LDKIK([AEEA-AEEA-γGlu-C18 diacid])QQDFVEWLLAQKPSSGAPPPS-OH (N-terminus assumed; SMILES CC[C@H](C)[C@H](NC(=O)[C@H](CCCCN)NC(=O)[C@H](CC(=O)O)NC(=O)[C@H](CC(C)C)NC(=O)C(C)(C)NC(=O)[C@@H](NC(=O)[C@H](CO)NC(=O)[C@H](Cc1ccc(O)cc1)NC(=O)[C@H](CCC(=O)O)NC(=O)[C@H](CO)NC(=O)[C@@H](NC(=O)[C@H](Cc1ccccc1)NC(=O)[C@@H](NC(=O)CNC(=O)[C@@H](N)CCC(=O)O)[C@@H](C)O)[C@@H](C)CC)[C@@H](C)CC)C(=O)N[C@@H](CCCCNC(=O)COCCOCCNC(=O)COCCOCCNC(=O)CC[C@H](NC(=O)CCCCCCCCCCCCCCCCC(=O)O)C(=O)O)C(=O)N[C@@H](CCC(N)=O)C(=O)N[C@@H](CCC(N)=O)C(=O)N[C@@H](CC(=O)O)C(=O)N[C@@H](Cc1ccccc1)C(=O)N[C@H](C(=O)N[C@@H](CCC(=O)O)C(=O)N[C@@H](Cc1c[nH]c2ccccc12)C(=O)N[C@@H](CC(C)C)C(=O)N[C@@H](CC(C)C)C(=O)N[C@@H](C)C(=O)N[C@@H](CCC(N)=O)C(=O)N[C@@H](CCCCN)C(=O)N1CCC[C@H]1C(=O)N[C@@H](CO)C(=O)N[C@@H](CO)C(=O)NCC(=O)N[C@@H](C)C(=O)N1CCC[C@H]1C(=O)N1CCC[C@H]1C(=O)N1CCC[C@H]1C(=O)N[C@@H](CO)C(=O)O)C(C)C) [AT712] | 0.39 | 9.4
5 | Glutaryl-GTFISEYSI[Aib]MEKIK([AEEA-AEEA-γGlu-C18 diacid])QQEFVEWLLAQKPSSGAPPPS-OH (SMILES CC[C@H](C)[C@H](NC(=O)[C@H](CCCCN)NC(=O)[C@H](CCC(=O)O)NC(=O)[C@H](CCSC)NC(=O)C(C)(C)NC(=O)[C@@H](NC(=O)[C@H](CO)NC(=O)[C@H](Cc1ccc(O)cc1)NC(=O)[C@H](CCC(=O)O)NC(=O)[C@H](CO)NC(=O)[C@@H](NC(=O)[C@H](Cc1ccccc1)NC(=O)[C@@H](NC(=O)CNC(=O)CCCC(=O)O)[C@@H](C)O)[C@@H](C)CC)[C@@H](C)CC)C(=O)N[C@@H](CCCCNC(=O)COCCOCCNC(=O)COCCOCCNC(=O)CC[C@H](NC(=O)CCCCCCCCCCCCCCCCC(=O)O)C(=O)O)C(=O)N[C@@H](CCC(N)=O)C(=O)N[C@@H](CCC(N)=O)C(=O)N[C@@H](CCC(=O)O)C(=O)N[C@@H](Cc1ccccc1)C(=O)N[C@H](C(=O)N[C@@H](CCC(=O)O)C(=O)N[C@@H](Cc1c[nH]c2ccccc12)C(=O)N[C@@H](CC(C)C)C(=O)N[C@@H](CC(C)C)C(=O)N[C@@H](C)C(=O)N[C@@H](CCC(N)=O)C(=O)N[C@@H](CCCCN)C(=O)N1CCC[C@H]1C(=O)N[C@@H](CO)C(=O)N[C@@H](CO)C(=O)NCC(=O)N[C@@H](C)C(=O)N1CCC[C@H]1C(=O)N1CCC[C@H]1C(=O)N1CCC[C@H]1C(=O)N[C@@H](CO)C(=O)O)C(C)C) [AT708] | 0.2 | 9.7
6 | Glutaryl-GTFISEYSI[Aib][Nle]EKIK([AEEA-AEEA-γGlu-C18 diacid])QQEFVEWLLAQKPSSGAPPPS-OH (SMILES CCCC[C@H](NC(=O)C(C)(C)NC(=O)[C@@H](NC(=O)[C@H](CO)NC(=O)[C@H](Cc1ccc(O)cc1)NC(=O)[C@H](CCC(=O)O)NC(=O)[C@H](CO)NC(=O)[C@@H](NC(=O)[C@H](Cc1ccccc1)NC(=O)[C@@H](NC(=O)CNC(=O)CCCC(=O)O)[C@@H](C)O)[C@@H](C)CC)[C@@H](C)CC)C(=O)N[C@@H](CCC(=O)O)C(=O)N[C@@H](CCCCN)C(=O)N[C@H](C(=O)N[C@@H](CCCCNC(=O)COCCOCCNC(=O)COCCOCCNC(=O)CC[C@H](NC(=O)CCCCCCCCCCCCCCCCC(=O)O)C(=O)O)C(=O)N[C@@H](CCC(N)=O)C(=O)N[C@@H](CCC(N)=O)C(=O)N[C@@H](CCC(=O)O)C(=O)N[C@@H](Cc1ccccc1)C(=O)N[C@H](C(=O)N[C@@H](CCC(=O)O)C(=O)N[C@@H](Cc1c[nH]c2ccccc12)C(=O)N[C@@H](CC(C)C)C(=O)N[C@@H](CC(C)C)C(=O)N[C@@H](C)C(=O)N[C@@H](CCC(N)=O)C(=O)N[C@@H](CCCCN)C(=O)N1CCC[C@H]1C(=O)N[C@@H](CO)C(=O)N[C@@H](CO)C(=O)NCC(=O)N[C@@H](C)C(=O)N1CCC[C@H]1C(=O)N1CCC[C@H]1C(=O)N1CCC[C@H]1C(=O)N[C@@H](CO)C(=O)O)C(C)C)[C@@H](C)CC) [AT706] | 0.26 | 9.6
7 | Glutaryl-GTFISEYSI[Aib]LEKIK([AEEA-AEEA-γGlu-C18 diacid])QQEFVEWLLAQKPSSGAPPPS-OH (SMILES CC[C@H](C)[C@H](NC(=O)[C@H](CCCCN)NC(=O)[C@H](CCC(=O)O)NC(=O)[C@H](CC(C)C)NC(=O)C(C)(C)NC(=O)[C@@H](NC(=O)[C@H](CO)NC(=O)[C@H](Cc1ccc(O)cc1)NC(=O)[C@H](CCC(=O)O)NC(=O)[C@H](CO)NC(=O)[C@@H](NC(=O)[C@H](Cc1ccccc1)NC(=O)[C@@H](NC(=O)CNC(=O)CCCC(=O)O)[C@@H](C)O)[C@@H](C)CC)[C@@H](C)CC)C(=O)N[C@@H](CCCCNC(=O)COCCOCCNC(=O)COCCOCCNC(=O)CC[C@H](NC(=O)CCCCCCCCCCCCCCCCC(=O)O)C(=O)O)C(=O)N[C@@H](CCC(N)=O)C(=O)N[C@@H](CCC(N)=O)C(=O)N[C@@H](CCC(=O)O)C(=O)N[C@@H](Cc1ccccc1)C(=O)N[C@H](C(=O)N[C@@H](CCC(=O)O)C(=O)N[C@@H](Cc1c[nH]c2ccccc12)C(=O)N[C@@H](CC(C)C)C(=O)N[C@@H](CC(C)C)C(=O)N[C@@H](C)C(=O)N[C@@H](CCC(N)=O)C(=O)N[C@@H](CCCCN)C(=O)N1CCC[C@H]1C(=O)N[C@@H](CO)C(=O)N[C@@H](CO)C(=O)NCC(=O)N[C@@H](C)C(=O)N1CCC[C@H]1C(=O)N1CCC[C@H]1C(=O)N1CCC[C@H]1C(=O)N[C@@H](CO)C(=O)O)C(C)C) [AT705] | 0.23 | 9.6
8 | EGTFISEYSI[Aib]MEKIK([AEEA-AEEA-γGlu-C18 diacid])QQEFVEWLLAQKPSSGAPPPS-OH [AT709] | 0.24 | 9.6
